In publication PMC8861512, “Characterization and Secretory Expression of a Thermostable Tannase from Aureobasidium melanogenum T9: Potential Candidate for Food and Agricultural Industries” (Frontiers in Bioengineering and Biotechnology, 2022) one finds Km data, which are given here for one protein.

By Km is commonly meant the concentration of substrate that gives half-maximal velocity.

Common to all, as to test: purified protein
Assay type in all cases: biochemical, Aureobasidium melanogenum
Common to all, as to settings: standard assay: 100 mM Na2HPO4-citric acid buffer, pH 5.0, 40 °C

Substrate in data set [1]: O=C(O[C@@H]1Cc2c(O)cc(O)cc2O[C@H]1c1cc(O)c(O)c(O)c1)c1cc(O)c(O)c(O)c1
Substrate in data set [2]: CCCOC(=O)c1cc(O)c(O)c(O)c1
Substrate in data set [3]: COC(=O)c1cc(O)c(O)c(O)c1
Substrate in data set [4]: O=C(O[C@@H]1Cc2c(O)cc(O)cc2O[C@@H]1c1cc(O)c(O)c(O)c1)c1cc(O)c(O)c(O)c1
Substrate in data set [5]: O=C(O[C@@H]1Cc2c(O)cc(O)cc2O[C@@H]1c1ccc(O)c(O)c1)c1cc(O)c(O)c(O)c1

B1: TanA (Aureobasidium melanogenum) (protein)
chain: SKDCSKATFQKVIPSNSTFNYVTKVAEGGTFTDAEANANATGLPEGCAVSVKVPTPGNSSYNMAIYMPNKWNSRIITTGNGGYGGFTNWQDLGQYSHYGFSAITTDTGHFNPNVLDSTFALNKGSLENWGWRAMHGSVLVGKALSAAYYGQTHKFSYYSGCSTGGRQGLKEMQVSPDAFDGVFVGAPAWWIPHLSIWTSQATLANLPQNSDHHISAALANVINDEILKQCDPQDGVTDNVIMNPAGCVFNPLTLLCEGAANASACITRPQLDTLYKALHDWTYFDGTLIFPVPSLGTPLVAYIGDSPIPNPMGTGAIEHMLLNTTEPYDWSTFNESVVRLSEAIDPGHGTPDNYDLSTFQKRGGKVIHWHGEADPIIPFRSSSYFYSQVASSVAPHDIEMDSFYKFFPIAGMSHCSGSQYSPWYIAGATQPLTNVSHGVPGFDDAQHNGLLALMRWVENGTAPEQLVATKYNNDDPTKGVYRQRPLCPFPKQPIYTHGNVDSASSWKCS
notes: codon-optimised, signal peptide (first 19 of 528 residues) removed; 6xHis tag kept; secreted by Yarrowia lipolytica, Ni-IDA purified
For the protein B1, the Michaelis-Menten constant (Km) in “purified protein [1]” stood at 1860 µM; in “purified protein [2]” it was 1710 µM; in “purified protein [3]”, 2810 µM; in the data set “purified protein [4]”, 2520 µM; in “purified protein [5]” it was 2130 µM.
